Data published in patent US20200048328A1 (Bristol-Myers Squibb, published 2020).

Columns and labels:
human PCSK9 [1] = biological target: T1, human PCSK9 (human, UniProt Q8NBP7 31-692); assay: PCSK9:LDLR FRET, competition
T1 construct: also called hPCSK9; huPCSK9

human PCSK9 [2] = biological target: T1, human PCSK9; assay: PCSK9:EGFA FRET 2, competition
human PCSK9 [3] = biological target: T1, human PCSK9; assay: PCSK9:EGFA FRET 1, competition
cynomolgus PCSK9 = biological target: T2, cynomolgus PCSK9 (cynomolgus, UniProt A0A7N9D9N8 150-747); assay: Octet Red, 37° C., core
T2 construct: also called cyno PCSK9

human PCSK9 [4] = biological target: T1, human PCSK9; assay: Octet Red, 37° C., core
human serum albumin [5] = biological target: T3, human serum albumin (human, UniProt P02768 25-609); assay: direct binding ELISA, albumin coated
T3 construct: immobilized on chips or coated on plates elsewhere; also called HSA; HuSA

mouse serum albumin [6] = biological target: T4, mouse serum albumin (mouse, UniProt P07724 25-608); assay: direct binding ELISA, albumin coated
T4 construct: also called MSA; MuSA

rhesus serum albumin [7] = biological target: T5, rhesus serum albumin (rhesus, UniProt Q28522 17-600); assay: direct binding ELISA, albumin coated
T5 construct: also called RhSA; Rh-SA

human serum albumin [8] = biological target: T3, human serum albumin; assay: Albumin KD (37° C.), summary table; human serum albumin (first value in the cell)
human PCSK9 [9] = biological target: T1, human PCSK9; assay: PCSK9:EGFA FRET human, summary table
human PCSK9 [10] = biological target: T1, human PCSK9; assay: BLI (Octet), biotinylated PCSK9 on tips, tandem in complex with excess HSA
rat serum albumin = biological target: T6, rat serum albumin (rat, UniProt P02770 25-608); assay: Albumin KD (37° C.), summary table; rat serum albumin (fourth value of the list)
T6 construct: also called Rat SA; RSA

cynomolgus serum albumin = biological target: T7, cynomolgus serum albumin (cynomolgus, UniProt A2V9Z4 25-608); assay: Albumin KD (37° C.), summary table; cynomolgus serum albumin (second value in the cell)
T7 construct: also called cynoSA; CySA

human serum albumin [11] = biological target: T3, human serum albumin; assay: SPR, albumin immobilized, acetate pH 5.5
mouse serum albumin [12] = biological target: T4, mouse serum albumin; assay: SPR, albumin immobilized, acetate pH 5.5
rhesus serum albumin [13] = biological target: T5, rhesus serum albumin; assay: SPR, albumin immobilized, acetate pH 5.5
human serum albumin [14] = biological target: T3, human serum albumin; assay: SPR, albumin immobilized;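 further: biacore SPR with human, rhesus or mouse serum albumin amine-coupled to the chip (about 1200 RU), 3 min association, 6-10 min dissociation, reference-subtracted traces fitted with a 1:1 model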
mouse serum albumin [15] = biological target: T4, mouse serum albumin; assay: SPR, albumin immobilized;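 on KD: biacore SPR with human, rhesus or mouse serum albumin amine-coupled to the chip (about 1200 RU), 3 min association, 6-10 min dissociation, reference-subtracted traces fitted with a 1:1 model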
rhesus serum albumin [16] = biological target: T5, rhesus serum albumin; assay: SPR, albumin immobilized;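 further: biacore SPR with human, rhesus or mouse serum albumin amine-coupled to the chip (about 1200 RU), 3 min association, 6-10 min dissociation, reference-subtracted traces fitted with a 1:1 model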
mouse serum albumin [17] = biological target: T4, mouse serum albumin; assay: Albumin KD (37° C.), summary table; mouse serum albumin (third value of the list)
human PCSK9 [18] = biological target: T1, human PCSK9; assay: BLI (Octet), biotinylated PCSK9 on tips, no HSA
human serum albumin [19] = biological target: T3, human serum albumin; assay: SPR, albumin immobilized, HBSP pH 7.4
mouse serum albumin [20] = biological target: T4, mouse serum albumin; assay: SPR, albumin immobilized, HBSP pH 7.4
rhesus serum albumin [21] = biological target: T5, rhesus serum albumin; assay: SPR, albumin immobilized, HBSP pH 7.4
human serum albumin [22] = biological target: T3, human serum albumin; assay: SPR, albumin immobilized, acetate pH 7.4
mouse serum albumin [23] = biological target: T4, mouse serum albumin; assay: SPR, albumin immobilized, acetate pH 7.4
rhesus serum albumin [24] = biological target: T5, rhesus serum albumin; assay: SPR, albumin immobilized, acetate pH 7.4
human serum albumin [25] = biological target: T3, human serum albumin; assay: hFcRn:HSA competition AlphaScreen, pH 5.5
human serum albumin [26] = biological target: T3, human serum albumin; assay: SPR, albumin immobilized, HBS-P pH 7.4
mouse serum albumin [27] = biological target: T4, mouse serum albumin; assay: SPR, albumin immobilized, HBS-P pH 7.4
rhesus serum albumin [28] = biological target: T5, rhesus serum albumin; assay: SPR, albumin immobilized, HBS-P pH 7.4
mouse serum albumin [29] = biological target: T4, mouse serum albumin; assay: SPR, albumin immobilized; remark: listed apart in the source;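 on KD: biacore SPR with human, rhesus or mouse serum albumin amine-coupled to the chip (about 1200 RU), 3 min association, 6-10 min dissociation, reference-subtracted traces fitted with a 1:1 model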
human serum albumin [30] = biological target: T3, human serum albumin; assay: SPR, albumin immobilized, acetate pH 5.5; remark: listed apart in the source
mouse serum albumin [31] = biological target: T4, mouse serum albumin; assay: SPR, albumin immobilized, acetate pH 5.5; remark: listed apart in the source
rhesus serum albumin [32] = biological target: T5, rhesus serum albumin; assay: SPR, albumin immobilized, acetate pH 5.5; remark: listed apart in the source
domain III of HSA = biological target: T8, domain III of HSA (human, UniProt P02768 405-609, limits assumed); assay: SPR on HSA domains
T8 construct: domain: III; also called HuSA domainIII

domain I of HSA = biological target: T9, domain I of HSA (human, UniProt P02768 25-221, limits assumed); assay: SPR on HSA domains
T9 construct: domain: I; also called HSA domain I

B1: PCSK9 Adnectin 2382_D09 (designed binder)
chain: MGVSDVPRDLEVVAATPTSLLISWDAPAEGYGYYRITYGETGGNSPVQEFTVPVSKGTATISGLKPGVDYTITVYAVEFDFPGAGYYHRPISINYRT
Which results are given for B1?
IC50 (human PCSK9 [1]): 2.3 nM; IC50 (human PCSK9 [2]): 10.6 nM; IC50 (human PCSK9 [3]): 19.7 nM; Kd (cynomolgus PCSK9): 39 nM; Kd (human PCSK9 [4]): 0.14 nM

B2: PCSK9-PKE2 tandem Adnectin w/ his tag 4472_C06 (designed binder)
chain: MGVSDVPRDLEVVAATPTSLLISWDAPAEGYGYYRITYGETGGNSPVQEFTVPVSKGTATISGLKPGVDYTITVYAVEFDFPGAGYYHRPISINYRTEPSTPPTPSPSTPPTPSPSGVSDVPRDLEVVAATPTSLLISWDAPAVTVRYYRITYGREVQKYSDLGPLYIYQEFTVPGSKSTATISGLKPGVDYTITVYAVTGSGESPASSKPISINYRTEHHHHHH
notes: also called ATI-1574; ADX_4472_C06
Which IC50 (human PCSK9 [1]) does the source give for B2 here?
Its IC50 is 1.4 nM.

And the EC50 (human serum albumin [5])?
Its EC50 is 184 nM.

What about the EC50 (mouse serum albumin [6]) of the same binder?
The EC50 was 15.6 nM.

And the EC50 (rhesus serum albumin [7])?
Its EC50 is 131 nM.

What about the Kd (human serum albumin [8]) of the same binder?
Its Kd is 57 nM.

What about the IC50 (human PCSK9 [9]) of the same binder?
The IC50 was 1.5 nM.

And the IC50 (human PCSK9 [2])?
The IC50 was 3.09 nM.

What about the Kd (human PCSK9 [10]) of the same binder?
The Kd was 1.55 nM.

And the koff (human PCSK9 [10])?
Its koff is 0.000305 s⁻¹.

And the kon (human PCSK9 [10])?
The kon was 197000 M⁻¹ s⁻¹.

What about the Kd (rat serum albumin) of the same binder?
The Kd was 200 nM.

What about the Kd (cynomolgus serum albumin) of the same binder?
The Kd was 51 nM.

And the Kd (human serum albumin [11])?
The Kd was 38.2 nM.

And the koff (human serum albumin [11])?
The koff was 0.000466 s⁻¹.

And the kon (human serum albumin [11])?
Its kon is 12200 M⁻¹ s⁻¹.

What about the Kd (mouse serum albumin [12]) of the same binder?
The Kd was 123 nM.

And the koff (mouse serum albumin [12])?
Its koff is 0.00161 s⁻¹.

And the kon (mouse serum albumin [12])?
The kon was 13100 M⁻¹ s⁻¹.

What about the Kd (rhesus serum albumin [13]) of the same binder?
Its Kd is 97.5 nM.

What about the koff (rhesus serum albumin [13]) of the same binder?
Its koff is 0.000815 s⁻¹.

What about the kon (rhesus serum albumin [13]) of the same binder?
The kon was 8360 M⁻¹ s⁻¹.

What about the Kd (human serum albumin [14]) of the same binder?
The Kd was 73.7 nM.

And the koff (human serum albumin [14])?
Its koff is 0.000289 s⁻¹.

And the kon (human serum albumin [14])?
The kon was 3920 M⁻¹ s⁻¹.

What about the Kd (mouse serum albumin [15]) of the same binder?
Its Kd is 26.1 nM.

What about the koff (mouse serum albumin [15]) of the same binder?
Its koff is 0.000301 s⁻¹.

What about the kon (mouse serum albumin [15]) of the same binder?
The kon was 11500 M⁻¹ s⁻¹.

And the Kd (rhesus serum albumin [16])?
The Kd was 77 nM.

What about the koff (rhesus serum albumin [16]) of the same binder?
The koff was 0.000337 s⁻¹.

And the kon (rhesus serum albumin [16])?
The kon was 4380 M⁻¹ s⁻¹.

What about the IC50 (human PCSK9 [3]) of the same binder?
Its IC50 is 9.18 nM.

What about the Kd (mouse serum albumin [17]) of the same binder?
Its Kd is 43 nM.

And the Kd (human PCSK9 [18])?
Its Kd is 0.515 nM.

And the koff (human PCSK9 [18])?
Its koff is 0.000168 s⁻¹.

And the kon (human PCSK9 [18])?
The kon was 336000 M⁻¹ s⁻¹.

What about the Kd (human serum albumin [19]) of the same binder?
Its Kd is 72 nM.

What about the koff (human serum albumin [19]) of the same binder?
Its koff is 0.000258 s⁻¹.

What about the kon (human serum albumin [19]) of the same binder?
Its kon is 3580 M⁻¹ s⁻¹.

What about the Kd (mouse serum albumin [20]) of the same binder?
Its Kd is 28.2 nM.

And the koff (mouse serum albumin [20])?
Its koff is 0.000336 s⁻¹.

What about the kon (mouse serum albumin [20]) of the same binder?
Its kon is 11900 M⁻¹ s⁻¹.

And the Kd (rhesus serum albumin [21])?
Its Kd is 78.9 nM.

And the koff (rhesus serum albumin [21])?
Its koff is 0.000305 s⁻¹.

What about the kon (rhesus serum albumin [21]) of the same binder?
The kon was 3860 M⁻¹ s⁻¹.

What about the Kd (human serum albumin [22]) of the same binder?
The Kd was 74.7 nM.

And the koff (human serum albumin [22])?
The koff was 0.000325 s⁻¹.

And the kon (human serum albumin [22])?
Its kon is 4350 M⁻¹ s⁻¹.

And the Kd (mouse serum albumin [23])?
Its Kd is 34.8 nM.

And the koff (mouse serum albumin [23])?
Its koff is 0.000375 s⁻¹.

What about the kon (mouse serum albumin [23]) of the same binder?
Its kon is 10800 M⁻¹ s⁻¹.

And the Kd (rhesus serum albumin [24])?
Its Kd is 80.7 nM.

And the koff (rhesus serum albumin [24])?
The koff was 0.000364 s⁻¹.

What about the kon (rhesus serum albumin [24]) of the same binder?
Its kon is 4510 M⁻¹ s⁻¹.

B3: PKE2 Adnectin 2270_C01 (designed binder)
chain: MASTSGVPRDLEVVAATPTSLLISWDAPAVTVRYYRITYGWQVQMYSDWGPLYIYKEFTVPGSKSTATISGLKPGVDYTITVYAVTGSGESPASSKPISINYRTEGDKPSQHHHHHH
notes: 10Fn3 domain with modified CD loop; the entry includes the His6 tail
For B3, which IC50 (human serum albumin [25]) is on record?
The IC50 was 37 nM.

And the Kd (human serum albumin [26])?
Its Kd is 5.58 nM.

And the koff (human serum albumin [26])?
The koff was 0.000368 s⁻¹.

What about the kon (human serum albumin [26]) of the same binder?
Its kon is 65900 M⁻¹ s⁻¹.

What about the Kd (mouse serum albumin [27]) of the same binder?
Its Kd is 67.7 nM.

And the koff (mouse serum albumin [27])?
The koff was 0.00909 s⁻¹.

What about the kon (mouse serum albumin [27]) of the same binder?
Its kon is 134000 M⁻¹ s⁻¹.

What about the Kd (rhesus serum albumin [28]) of the same binder?
Its Kd is 6.98 nM.

What about the koff (rhesus serum albumin [28]) of the same binder?
The koff was 0.000577 s⁻¹.

What about the kon (rhesus serum albumin [28]) of the same binder?
Its kon is 82700 M⁻¹ s⁻¹.

And the “fold weaker affinity than for human or rhesus albumin” value (mouse serum albumin [29])?
The value was about 10 fold.

What about the Kd (human serum albumin [30]) of the same binder?
The Kd was 8.82 nM.

And the koff (human serum albumin [30])?
Its koff is 0.000898 s⁻¹.

And the kon (human serum albumin [30])?
The kon was 102000 M⁻¹ s⁻¹.

What about the Kd (mouse serum albumin [31]) of the same binder?
Its Kd is about 192 nM.

What about the koff (mouse serum albumin [31]) of the same binder?
The koff was 0.0146 s⁻¹.

What about the kon (mouse serum albumin [31]) of the same binder?
The kon was 75900 M⁻¹ s⁻¹.

What about the Kd (rhesus serum albumin [32]) of the same binder?
Its Kd is 17.6 nM.

What about the koff (rhesus serum albumin [32]) of the same binder?
The koff was 0.00105 s⁻¹.

And the kon (rhesus serum albumin [32])?
The kon was 59600 M⁻¹ s⁻¹.

Does B3 bind (domain III of HSA)?
Result: no binding

Does B3 bind (domain I of HSA)?
Result: no binding
